{
  "source": "paper PMC13254535",
  "about": "“The RecBCD complex interacts directly with the DNA sliding clamp in Escherichia coli” (Nucleic Acids Research, 2026)",
  "key": {"[1]": {"target": "β-clamp (Escherichia coli, UniProt P0A988)", "sequence (P0A988 whole entry)": "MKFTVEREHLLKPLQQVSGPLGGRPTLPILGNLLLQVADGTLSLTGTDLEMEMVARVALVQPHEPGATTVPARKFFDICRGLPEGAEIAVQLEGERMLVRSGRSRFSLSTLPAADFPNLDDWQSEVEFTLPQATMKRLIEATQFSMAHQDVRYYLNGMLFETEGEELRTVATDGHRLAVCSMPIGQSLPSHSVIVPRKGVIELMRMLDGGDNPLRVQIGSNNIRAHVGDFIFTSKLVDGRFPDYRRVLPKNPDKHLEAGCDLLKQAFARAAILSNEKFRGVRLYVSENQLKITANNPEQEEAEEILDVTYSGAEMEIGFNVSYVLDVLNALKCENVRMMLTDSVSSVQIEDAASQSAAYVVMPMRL", "assay": "Saturation transfer difference (STD)-NMR of peptides with β-clamp", "format": "binding", "design": "made in house", "settings": "150 µM peptide, 1.5 µM β-clamp; 25°C; 20 mM sodium phosphate, 100 mM NaCl, 5 mM DTT, 0.3% DMSO, 5% D2O, pH 7.4; 600 MHz", "description": "All peptides, except Pol III C-terminal ([sequence]), were N-terminally acetylated and C-terminally amidated to remove charges in the N-and C-termini, not present in the context of the full-length proteins.\nUnlabeled and ^2H, ^13C, ^15N-labeled E. coli β-clamp was expressed and purified as previously described [54]. The β-clamp concentration was determined by absorbance at 280 nm measured on a NanoDrop ND-1000 spectrophotometer (Thermo Fisher Scientific Inc.) and using an extinction coefficient calculated by the Expasy ProtParam web tool (https://web.expasy.org/protparam/) [55]. All β-clamp concentrations are listed as the protomer concentration. The peptides were readily soluble at micromolar concentration, although at high micromolar concentrations, we cannot rule out the presence of aggregates.\nSaturation transfer difference (STD)-nuclear magnetic resonance (NMR) experiments were performed at 25°C on a Bruker Avance III HD 600 MHz NMR spectrometer equipped with a 5-mm QCI Cryoprobe. […] Samples were transferred to 5-mm NMR tubes."}, "[2]": {"target": "T1, Escherichia coli β-clamp (DnaN), recombinantly expressed and purified (Escherichia coli, UniProt P0A988 1-366)", "T1 construct": "β-clamp (dnaN), E. coli; homodimer; Unlabeled in STD-NMR and ITC; 2H,13C,15N-labeled in the TROSY-HSQC experiments; also called DNA sliding clamp; source: recombinantly expressed and purified as previously described [54]", "assay": "STD-NMR; 150 µM peptide with 1.5 µM unlabeled β-clamp, 20 mM sodium phosphate, 100 mM NaCl, 5 mM DTT, 0.3% DMSO, pH 7.4, 25°C", "settings": "both partners purified"}, "[3]": {"tested_on": "ΔrecA ΔrecB cells", "assay": "Basal DNA content without UV", "format": "cell-based, Escherichia coli", "settings": "expressed from pUT18C in ΔrecA ΔrecB; no UV; compared to wild-type RecB", "procedure": "(§1) IMR13 (ΔrecA) served as a positive control for RecB-mediated DNA degradation, while IMR19 (ΔrecA ΔrecB) was used as a negative control.\n(§2) Overnight cultures were diluted to an OD600 of 0.01 into LB medium supplemented with appropriate antibiotics and incubated with shaking at 37°C until they reached an OD600 of 0.2. Each culture was split into two 1 ml aliquots. One aliquot was fixed immediately in ethanol (50% final concentration) to assess DNA content prior to UV exposure. The second aliquot was pelleted, resuspended in 1× PBS, and exposed to UV light at a dose of 50 J/m^2 (CL-1000 Ultraviolet crosslinker, UVP). […]\n(§3) Imaging was performed on a Leica DM6000 B fluorescence microscope equipped with a 100× oil immersion objective (Leica HCX Plan Apochromat 100×, 1.40 NA, PH3 CS), a Leica EL6000 metal-halide illumination system, and a Hamamatsu C9100-14 EM-CCD camera. For each sample, six fields of view were acquired, each including both phase-contrast and fluorescence channels. Fluorescence imaging was conducted using a narrow band-pass filter set optimized for CFP (Excitation: 426–446 nm; Emission: 460–500 nm; exposure time: 30 ms). All imaging parameters—including exposure time, illumination intensity, and gain—were kept constant across all strains, treatments, and replicates to ensure quantitative comparability and minimize experimental bias. […]"}, "[4]": {"tested_on": "ΔrecA ΔrecB cells", "assay": "DNA degradation assay after UV (\"reckless\" DNA degradation)", "format": "cell-based, Escherichia coli", "settings": "expressed from pUT18C in ΔrecA ΔrecB; UV 50 J/m^2, 3 h; Hoechst 33258 microscopy", "procedure": "as §1, §2, §3"}, "[5]": {"tested_on": "BTH101 ΔrecB cells", "assay": "Western blot of RecB expression level", "design": "species or system Escherichia coli", "settings": "pUT18C constructs in BTH101 ΔrecB; Ponceau S normalized; relative to BTH101 wild type", "description": "Samples, including purified RecB, β-clamp (purified as previously explained for co-immunoprecipitation), input (10 µg; 0.5%), and pull-down eluates, and samples from BTH101 cultures used in survival assays, were mixed with 1 mM dithiothreitol (DTT) and 1× NuPAGE LDS sample buffer, then heated to 75°C for 10 min. […] SeeBlue Plus2 Pre-stained Protein Standard (Invitrogen) was used as a molecular weight marker.\nProteins were transferred onto 0.2-µm nitrocellulose membranes using the Trans-Blot Turbo Transfer System (Bio-Rad), and membranes were blocked in 5% (w/v) skim milk (Merck) in PBS-T (PBS with 0.1% Tween-20) for 45–60 min at room temperature. […] Following protein transfer, these membranes were also incubated in 0.1% (w/v) Ponceau S solution for 5 min to verify transfer efficiency and account for total protein loading. The stain was visualized, imaged for densitometric normalization, and subsequently removed by washing with deionized water prior to blocking. […]\nRelative RecB levels were quantified from the western blot images using Fiji (ImageJ) [58]. […] The lane profiles were plotted, and the measured signal from each lane was first normalized to the relevant Ponceau stain signal from the same lane and then to the wild-type strain."}, "[6]": {"tested_on": "RecA", "settings": "RecB mutation D1080A; ref [82]; cited from earlier work"}, "[7]": {"tested_on": "recB strains", "settings": "RecB mutation D1080A; ref [82]; cited from earlier work"}, "[8]": {"target": "T1, Escherichia coli β-clamp (DnaN), …", "assay": "ITC; 278-294 µM β-clamp in the syringe titrated into 70.6 µM peptide in the cell; 20 mM sodium phosphate, 100 mM NaCl, 1 mM TCEP, 0.02% DMSO, pH 7.4, 25°C; one-site model; three replicates", "settings": "both partners purified"}},
  "data": [
    {"molecule": "EQVELEFD [DNA polymerase III C-terminal CBM peptide, positive control, reference compound]", "values": [
      {"measurement": "STD-NMR binding", "setting": "[1]", "result": "clear binding"}
    ]},
    {"molecule": "GKNQALRAV [phenylalanine-to-alanine variant of the RecB helicase motif peptide]", "values": [
      {"measurement": "STD-NMR binding", "setting": "[1]", "result": "did not exhibit detectable STD signals under the conditions tested"}
    ]},
    {"molecule": "GKNQALRFV [RecB helicase motif peptide (residues 485–489) with one C-terminal and three N-terminal flanking residues]", "values": [
      {"measurement": "STD-NMR binding", "setting": "[1]", "result": "did not exhibit detectable STD signals under the conditions tested"}
    ]},
    {"molecule": "GQADMFG [DNA polymerase III internal CBM peptide, positive control, reference compound]", "values": [
      {"measurement": "STD-NMR binding", "setting": "[1]", "result": "clear binding"}
    ]},
    {"molecule": "KQVEMEAY [QVEMEF variant in which the terminal phenylalanine was replaced with alanine]", "values": [
      {"measurement": "STD-NMR binding", "setting": "[1]", "result": "no detectable binding"}
    ]},
    {"molecule": "EQVELEFD (free termini; also called QVELEF peptide; source: synthetic peptide; bought: TAG Copenhagen)", "note": "[Pol III C-terminal peptide (EQVELEFD)]", "values": [
      {"measurement": "binding result", "setting": "[2]", "result": "binds"}
    ]},
    {"molecule": "RecBF489A: RecB with an F489A substitution in the QALRF motif (protein, UniProt P08394 2-1180, looked up, variant F489A) RecBCD enzyme subunit RecB: SDVAETLDPLRLPLQGERLIEASAGTGKTFTIAALYLRLLLGLGGSAAFPRPLTVEELLVVTFTEAATAELRGRIRSNIHELRIACLRETTDNPLYERLLEEIDDKAQAAQWLLLAERQMDEAAVFTIHGFCQRMLNLNAFESGMLFEQQLIEDESLLRYQACADFWRRHCYPLPREIAQVVFETWKGPQALLRDINRYLQGEAPVIKAPPPDDETLASRHAQIVARIDTVKQQWRDAVGELDALIESSGIDRRKFNRSNQAKWIDKISAWAEEETNSYQLPESLEKFSQRFLEDRTKAGGETPRHPLFEAIDQLLAEPLSIRDLVITRALAEIRETVAREKRRRGELGFDDMLSRLDSALRSESGEVLAAAIRTRFPVAMIDEFQDTDPQQYRIFRRIWHHQPETALLLIGDPKQAIYAFRGADIFTYMKARSEVHAHYTLDTNWRSAPGMVNSVNKLFSQTDDAFMFREIPFIPVKSAGKNQALRAVFKGETQPAMKMWLMEGESCGVGDYQSTMAQVCAAQIRDWLQAGQRGEALLMNGDDARPVRASDISVLVRSRQEAAQVRDALTLLEIPSVYLSNRDSVFETLEAQEMLWLLQAVMTPERENTLRSALATSMMGLNALDIETLNNDEHAWDVVVEEFDGYRQIWRKRGVMPMLRALMSARNIAENLLATAGGERRLTDILHISELLQEAGTQLESEHALVRWLSQHILEPDSNASSQQMRLESDKHLVQIVTIHKSKGLEYPLVWLPFITNFRVQEQAFYHDRHSFEAVLDLNAAPESVDLAEAERLAEDLRLLYVALTRSVWHCSLGVAPLVRRRGDKKGDTDVHQSALGRLLQKGEPQDAAGLRTCIEALCDDDIAWQTAQTGDNQPWQVNDVSTAELNAKTLQRLPGDNWRVTSYSGLQQRGHGIAQDLMPRLDVDAAGVASVVEEPTLTPHQFPRGASPGTFLHSLFEDLDFTQPVDPNWVREKLELGGFESQWEPVLTEWITAVLQAPLNETGVSLSQLSARNKQVEMEFYLPISEPLIASQLDTLIRQFDPLSAGCPPLEFMQVRGMLKGFIDLVFRHEGRYYLLDYKSNWLGEDSSAYTQQAMAAAMQAHRYDLQYQLYTLALHRYLRHRIADYDYEHHFGGVIYLFLRGVDKEHPQQGIYTTRPNAGLIALMDEMFAGMTLEEA", "values": [
      {"measurement": "basal DNA content", "setting": "[3]", "result": "No significant difference in DNA content"},
      {"measurement": "reckless DNA degradation after UV", "setting": "[4]", "result": "did not"},
      {"measurement": "RecB expression level relative to endogenous RecB", "setting": "[5]", "result": "~2", "unit": "times"}
    ]},
    {"molecule": "D1080A: RecB mutation that disrupts the interaction between RecB and RecA (protein, UniProt P08394 2-1180, looked up, variant D1080A) RecBCD enzyme subunit RecB: SDVAETLDPLRLPLQGERLIEASAGTGKTFTIAALYLRLLLGLGGSAAFPRPLTVEELLVVTFTEAATAELRGRIRSNIHELRIACLRETTDNPLYERLLEEIDDKAQAAQWLLLAERQMDEAAVFTIHGFCQRMLNLNAFESGMLFEQQLIEDESLLRYQACADFWRRHCYPLPREIAQVVFETWKGPQALLRDINRYLQGEAPVIKAPPPDDETLASRHAQIVARIDTVKQQWRDAVGELDALIESSGIDRRKFNRSNQAKWIDKISAWAEEETNSYQLPESLEKFSQRFLEDRTKAGGETPRHPLFEAIDQLLAEPLSIRDLVITRALAEIRETVAREKRRRGELGFDDMLSRLDSALRSESGEVLAAAIRTRFPVAMIDEFQDTDPQQYRIFRRIWHHQPETALLLIGDPKQAIYAFRGADIFTYMKARSEVHAHYTLDTNWRSAPGMVNSVNKLFSQTDDAFMFREIPFIPVKSAGKNQALRFVFKGETQPAMKMWLMEGESCGVGDYQSTMAQVCAAQIRDWLQAGQRGEALLMNGDDARPVRASDISVLVRSRQEAAQVRDALTLLEIPSVYLSNRDSVFETLEAQEMLWLLQAVMTPERENTLRSALATSMMGLNALDIETLNNDEHAWDVVVEEFDGYRQIWRKRGVMPMLRALMSARNIAENLLATAGGERRLTDILHISELLQEAGTQLESEHALVRWLSQHILEPDSNASSQQMRLESDKHLVQIVTIHKSKGLEYPLVWLPFITNFRVQEQAFYHDRHSFEAVLDLNAAPESVDLAEAERLAEDLRLLYVALTRSVWHCSLGVAPLVRRRGDKKGDTDVHQSALGRLLQKGEPQDAAGLRTCIEALCDDDIAWQTAQTGDNQPWQVNDVSTAELNAKTLQRLPGDNWRVTSYSGLQQRGHGIAQDLMPRLDVDAAGVASVVEEPTLTPHQFPRGASPGTFLHSLFEDLDFTQPVDPNWVREKLELGGFESQWEPVLTEWITAVLQAPLNETGVSLSQLSARNKQVEMEFYLPISEPLIASQLDTLIRQFDPLSAGCPPLEFMQVRGMLKGFIDLVFRHEGRYYLLAYKSNWLGEDSSAYTQQAMAAAMQAHRYDLQYQLYTLALHRYLRHRIADYDYEHHFGGVIYLFLRGVDKEHPQQGIYTTRPNAGLIALMDEMFAGMTLEEA", "values": [
      {"measurement": "interaction between RecB and RecA", "setting": "[6]", "result": "disrupts the interaction between RecB and RecA"},
      {"measurement": "survival rates after UV exposure", "setting": "[7]", "result": "comparable to those observed in strains with a complete recB deletion"}
    ]},
    {"molecule": "Ac-GQADMFG-NH2 (also called QADMF peptide; source: synthetic peptide; bought: TAG Copenhagen)", "note": "[Pol III internal peptide (GQADMFG)]", "values": [
      {"measurement": "binding result", "setting": "[2]", "result": "binds"}
    ]},
    {"molecule": "Ac-KQVEMEFY-NH2 (also called QVEMEF peptide; RecB-derived QVEMEF peptide; source: synthetic peptide; bought: TAG Copenhagen)", "note": "[RecB nuclease motif peptide (KQVEMEFY)]", "values": [
      {"measurement": "Kd", "setting": "[8]", "result": 2000, "unit": "nM"}
    ]}
  ]
}
